Source: PMC6044717 (ACS Omega, 2018)

Legend:
[1] = molecular target: fluorescein isothiocyanate (FITC)-conjugated GRGDSP peptide; assay: fluorescence polarisation
[2] = molecular target: Human recombinant integrin α5β1 (human) (UniProt P08648); assay: fluorescence polarisation
[3] = Solubility in water; assay type: physicochemical; settings: physiological pH and temperature

Row | solubility in water [3] | Molecule | Kd [1] [µM] | IC50 [2] [µM] | Ki [2] [µM]
1 | – | Human recombinant integrin α5β1 (from UniProt P08648 42-1049; P05556 21-728) (complex) | 0.207 | – | –
2 | – | arginine–glycine–aspartic acid tripeptide (RGD) | – | 26.8 | 10.8
3 | – | depsipeptide R-Glc-D (arginine–glycolic acid–aspartic acid) | – | 1120 | 454
4 | not readily soluble | O=C(N[C@@H](Cc1ccccc1)C(=O)O)OCC1c2ccccc2-c2ccccc21 [Fmoc-F] | – | – | –
